Biological target: T1, full-length untagged human p110α (catalytic subunit of PI 3-kinase) (human, UniProt P42336 1-1068, [35S]-methionine label)
T1 construct: human p110α (PIK3CA), full length, untagged; also called native p110α; unaltered wild-type p110α
Experiment: pull-down; 25 μg GST or GST fusion protein purified from bacteria, bound to glutathione-Sepharose beads; 1 pmol 35S-labelled in vitro translated protein (partially purified by ammonium sulfate precipitation); binding buffer 20 mM Tris–HCl pH 7.1, 125 mM KOAc, 0.5 mM EDTA, 1 mM DTT, 0.1% Tween20, 12.5% glycerol; sedimentation, SDS–PAGE, autoradiography or phosphorimaging; percent binding against input
Conditions: one partner purified

T1 sequence (P42336 whole entry): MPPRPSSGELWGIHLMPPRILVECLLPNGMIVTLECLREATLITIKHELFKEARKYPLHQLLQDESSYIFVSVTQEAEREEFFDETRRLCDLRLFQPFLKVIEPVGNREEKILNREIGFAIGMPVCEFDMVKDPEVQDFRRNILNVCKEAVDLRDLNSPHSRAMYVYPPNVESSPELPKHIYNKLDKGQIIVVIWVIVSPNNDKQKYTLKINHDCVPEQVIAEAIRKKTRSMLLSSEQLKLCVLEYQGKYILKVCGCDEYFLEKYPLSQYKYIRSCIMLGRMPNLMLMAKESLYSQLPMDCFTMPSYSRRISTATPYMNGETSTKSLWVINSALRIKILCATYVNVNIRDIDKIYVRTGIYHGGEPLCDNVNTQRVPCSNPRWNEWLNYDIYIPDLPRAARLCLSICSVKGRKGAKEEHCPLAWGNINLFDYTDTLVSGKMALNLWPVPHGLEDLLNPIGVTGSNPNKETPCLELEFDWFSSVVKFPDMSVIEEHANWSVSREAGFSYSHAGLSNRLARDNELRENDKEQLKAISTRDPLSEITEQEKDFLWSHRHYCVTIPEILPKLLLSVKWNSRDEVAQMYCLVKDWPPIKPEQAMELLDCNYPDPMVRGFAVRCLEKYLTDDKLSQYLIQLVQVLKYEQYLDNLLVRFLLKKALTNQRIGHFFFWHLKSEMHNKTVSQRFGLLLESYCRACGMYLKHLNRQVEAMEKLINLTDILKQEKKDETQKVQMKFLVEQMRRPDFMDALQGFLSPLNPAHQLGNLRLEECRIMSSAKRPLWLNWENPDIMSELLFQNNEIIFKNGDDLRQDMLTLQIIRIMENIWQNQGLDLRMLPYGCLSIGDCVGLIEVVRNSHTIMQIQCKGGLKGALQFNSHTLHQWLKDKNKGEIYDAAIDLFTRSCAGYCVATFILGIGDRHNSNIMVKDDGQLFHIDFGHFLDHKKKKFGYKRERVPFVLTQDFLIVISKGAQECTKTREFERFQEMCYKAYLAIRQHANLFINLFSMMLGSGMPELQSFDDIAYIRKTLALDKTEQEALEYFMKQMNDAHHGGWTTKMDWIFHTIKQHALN

B1: GST-WW (WW domain of human IQGAP1 fused to GST) (domain or fragment, UniProt P46940 679-719, looked up)
chain: GDNNSKWVKHWVKGGYYYYHNLETQEGGWDEPPNFVQNSMQ
notes: human IQGAP1, residues 679-719 holding the WW domain (the results name the WW domain as residues 684-710); in plasmid pGEXLB; also called GST-WW fusion protein; wild-type GST-WW; source: expressed in bacteria, purified on glutathione-Sepharose; not shown: GST (Schistosoma japonicum), N-terminal, kept
Q: Which Kd does the source give for B1 here?
A: Its Kd is 130 µM.

Source: PMC10625650, “The WW domain of IQGAP1 binds directly to the p110α catalytic subunit of PI 3-kinase” (The Biochemical journal, 2023)
